Test results published in US20160264649A1.

Assays:
Experiment in all cases: cell-based or functional assay
[1] = target: HIV-1 Env of isolate MGRM-F1-010 (subtype F) (HIV-1)
[2] = target: HIV-1 Env of pseudovirus isolate MGRM-G-014 (subtype G) (HIV-1)
[3] = target: HIV-1 Env of isolate MGRM-D-028 (subtype D) (HIV-1)
[4] = target: HIV-1 Env of isolate MGRM-F1-023 (subtype F) (HIV-1)
[5] = target: HIV-1 Env of pseudovirus isolate MGRM-G-019 (subtype G) (HIV-1)
[6] = target: HIV-1 Env of isolate 98CN009 (subtype CRF07_BC) (HIV-1)
[7] = target: HIV-1 Env of isolate MGRM-D-008 (subtype D) (HIV-1)
[8] = target: HIV-1 Env of isolate MGRM-D-005 (subtype D) (HIV-1)
[9] = target: HIV-1 Env of isolate MGRM-F1-006 (subtype F) (HIV-1)
[10] = target: HIV-1 Env of isolate MGRM-D-022 (subtype D) (HIV-1)
[11] = target: HIV-1 Env of isolate MGRM-F1-020 (subtype F) (HIV-1)
[12] = target: HIV-1 Env of isolate MGRM-D-003 (subtype D) (HIV-1)
[13] = target: HIV-1 Env of isolate MGRM-D-024 (subtype D) (HIV-1)
[14] = target: HIV-1 Env of isolate MGRM-D-016 (subtype D) (HIV-1)
[15] = target: HIV-1 Env of isolate 92UG046 (subtype D) (HIV-1)
[16] = target: HIV-1 Env of isolate MGRM-D-021 (subtype D) (HIV-1)
[17] = target: HIV-1 Env of isolate MGRM-D-013 (subtype D) (HIV-1)
[18] = target: envelope of aMLV pseudovirus (negative control)
[19] = target: HIV-1 Env of isolate MGRM-D-019 (subtype D) (HIV-1)
[20] = target: HIV-1 Env of pseudovirus isolate MGRM-G-027 (subtype G) (HIV-1)
[21] = target: HIV-1 Env of isolate MGRM-D-020 (subtype D) (HIV-1)
[22] = target: HIV-1 Env of isolate MGRM-F1-015 (subtype F) (HIV-1)
[23] = target: HIV-1 Env of isolate MGRM-F1-012 (subtype F) (HIV-1)
[24] = target: HIV-1 Env of isolate MGRM-D-014 (subtype D) (HIV-1)
[25] = target: HIV-1 Env of isolate MGRM-D-026 (subtype D) (HIV-1)
[26] = target: HIV-1 Env of pseudovirus isolate MGRM-G-006 (subtype G) (HIV-1)
[27] = target: HIV-1 Env of isolate MGRM-F1-014 (subtype F) (HIV-1)
[28] = target: HIV-1 Env of pseudovirus isolate MGRM-G-024 (subtype G) (HIV-1)
[29] = target: HIV-1 Env of isolate MGRM-F1-008 (subtype F) (HIV-1)
[30] = target: HIV-1 Env of isolate MGRM-F1-016 (subtype F) (HIV-1)
[31] = target: HIV-1 Env of pseudovirus isolate MGRM-G-028 (subtype G) (HIV-1)
[32] = target: HIV-1 Env of pseudovirus isolate MGRM-G-011 (subtype G) (HIV-1)
[33] = target: HIV-1 Env of isolate 92UG005 (subtype D) (HIV-1)
[34] = target: HIV-1 Env of isolate MGRM-D-001 (subtype D) (HIV-1)
[35] = target: HIV-1 Env of isolate MGRM-F1-017 (subtype F) (HIV-1)
[36] = target: HIV-1 Env of pseudovirus isolate MGRM-G-015 (subtype G) (HIV-1)
[37] = target: HIV-1 Env of isolate MGRM-D-012 (subtype D) (HIV-1)
[38] = target: HIV-1 Env of pseudovirus isolate MGRM-G-025 (subtype G) (HIV-1)
[39] = target: HIV-1 Env of isolate 92UG024 (subtype D) (HIV-1)
[40] = target: HIV-1 Env of pseudovirus isolate MGRM-G-004 (subtype G) (HIV-1)
[41] = target: HIV-1 Env of isolate MGRM-D-011 (subtype D) (HIV-1)
[42] = target: HIV-1 Env of isolate 98CN006 (subtype CRF08_BC) (HIV-1)
[43] = target: HIV-1 Env of pseudovirus isolate MGRM-G-013 (subtype G) (HIV-1)
[44] = target: HIV-1 Env of pseudovirus isolate MGRM-G-009 (subtype G) (HIV-1)
[45] = target: HIV-1 Env of pseudovirus isolate MGRM-G-016 (subtype G) (HIV-1)
[46] = target: HIV-1 Env of pseudovirus isolate MGRM-G-001 (subtype G) (HIV-1)
[47] = target: HIV-1 Env of isolate MGRM-D-002 (subtype D) (HIV-1)
[48] = target: HIV-1 Env of isolate MGRM-F1-013 (subtype F) (HIV-1)
[49] = target: HIV-1 Env of isolate MGRM-F1-021 (subtype F) (HIV-1)
[50] = target: HIV-1 Env of isolate MGRM-D-018 (subtype D) (HIV-1)
[51] = target: HIV-1 Env of isolate MGRM-D-004 (subtype D) (HIV-1)
[52] = target: HIV-1 Env of pseudovirus isolate MGRM-G-017 (subtype G) (HIV-1)
[53] = target: HIV-1 Env of isolate MGRM-D-029 (subtype D) (HIV-1)
[54] = target: HIV-1 Env of isolate MGRM-F1-004 (subtype F) (HIV-1)
[55] = target: HIV-1 Env of isolate MGRM-F1-018 (subtype F) (HIV-1)
[56] = target: HIV-1 Env of isolate 92UG114 (subtype D) (HIV-1)
[57] = target: HIV-1 Env of isolate 92UG001 (subtype D) (HIV-1)
[58] = target: HIV-1 Env of isolate MGRM-F1-022 (subtype F) (HIV-1)

Substance: PGT-122 (antibody)
- IC50 (neutralization) [1]: 0.024 mg/L
- IC50 [2]: 0.008 mg/L
- IC50 (neutralization) [3]: 3.34 mg/L
- IC50 (neutralization) [4]: 0.154 mg/L
- IC50 [5]: 0.016 mg/L
- IC50 (neutralization) [6]: 0.013 mg/L
- IC50 (neutralization) [7]: > 50 mg/L
- IC50 (neutralization) [8]: > 50 mg/L
- IC50 (neutralization) [9]: 3.27 mg/L
- IC50 (neutralization) [10]: > 50 mg/L
- IC50 (neutralization) [11]: 0.321 mg/L
- IC50 (neutralization) [12]: > 50 mg/L
- IC50 (neutralization) [13]: 0.185 mg/L
- IC50 (neutralization) [14]: > 50 mg/L
- IC50 (neutralization) [15]: > 50 mg/L
- IC50 (neutralization) [16]: 11.7 mg/L
- IC50 (neutralization) [17]: > 50 mg/L
- IC50 [18]: > 50 mg/L
- IC50 (neutralization) [19]: > 50 mg/L
- IC50 [20]: 0.606 mg/L
- IC50 (neutralization) [21]: 0.007 mg/L
- IC50 (neutralization) [22]: 31.4 mg/L
- IC50 (neutralization) [23]: > 50 mg/L
- IC50 (neutralization) [24]: 0.012 mg/L
- IC50 (neutralization) [25]: > 50 mg/L
- IC50 [26]: > 50 mg/L
- IC50 (neutralization) [27]: 0.195 mg/L
- IC50 [28]: 0.033 mg/L
- IC50 (neutralization) [29]: > 50 mg/L
- IC50 (neutralization) [30]: 4.81 mg/L
- IC50 [31]: 0.01 mg/L
- IC50 [32]: 31.3 mg/L
- IC50 (neutralization) [33]: > 50 mg/L
- IC50 (neutralization) [34]: 1.13 mg/L
- IC50 (neutralization) [35]: > 50 mg/L
- IC50 [36]: > 50 mg/L
- IC50 (neutralization) [37]: > 50 mg/L
- IC50 [38]: 0.079 mg/L
- IC50 (neutralization) [39]: > 50 mg/L
- IC50 [40]: 2.15 mg/L
- IC50 (neutralization) [41]: 0.019 mg/L
- IC50 (neutralization) [42]: 0.021 mg/L
- IC50 [43]: 3.45 mg/L
- IC50 [44]: 0.514 mg/L
- IC50 [45]: > 50 mg/L
- IC50 [46]: 0.005 mg/L
- IC50 (neutralization) [47]: 0.005 mg/L
- IC50 (neutralization) [48]: 0.152 mg/L
- IC50 (neutralization) [49]: 2.3 mg/L
- IC50 (neutralization) [50]: 0.007 mg/L
- IC50 (neutralization) [51]: > 50 mg/L
- IC50 [52]: 0.032 mg/L
- IC50 (neutralization) [53]: > 50 mg/L
- IC50 (neutralization) [54]: 1.29 mg/L
- IC50 (neutralization) [55]: 0.563 mg/L
- IC50 (neutralization) [56]: 0.011 mg/L
- IC50 (neutralization) [57]: > 50 mg/L
- IC50 (neutralization) [58]: 0.277 mg/L
